# T1: synthetic peptide comprising the epitope II region (residues 434-446) of HCV E2, strain H77 (Hepatitis C virus, strain H77)
# T1 chain: NTGWLAGLFYQHK
# B1: Fab fragment of human monoclonal antibody HC84-27 (Fab, V domains shown)
# VH: QVTLKESGAEVKKPGSSVKVSCEASGGTLSNYVITWVRQAPGQGLEWMGGFIPTFRTAMYAQGFQGRVTITADESTSIAYMELTNLRSEDTAVYYCARGPLSRGYYDYWGQGTLVTVSS
# VL: SYVLTQPPSVSVSPGQTARITCSGDKLGDKYASWYQQKPGQSPVLVIYQDNKRPSEIPARFSGSNSGNTATLTISGAQAMDEADYYCQAWDSNTGVFGTGTKLTVL
# Target: T1, synthetic peptide comprising the …
# Experiment: crystal structure; Fab 10 mg/ml + epitope II peptide (0.9 mg/ml for HC84-1, 1.5 mg/ml for HC84-27), complex formed overnight at 277 K; crystals at 293 K, hanging drop, 10 mM TRIS pH 8.0, 150 mM NaCl
# Conditions: both partners purified
binder,measurement,value
B1,binding result,binds
